Measured values as given in FireProtDB (doi:10.1093/oxfordjournals.jbchem.a021544).

Conditions: Homo sapiens; pH 2.7; Thermal; DSC; glycine 0.05 M; reversible: yes; whole UniProt chain shown

B1: Lysozyme C wild type, P61626 (protein)
chain: MKALIVLGLVLLSVTVQGKVFERCELARTLKRLGMDGYRGISLANWMCLAKWESGYNTRATNYNAGDRSTDYGIFQINSRYWCNDGKTPGAVNACHLSCSALLQDNIADAVACAKRVVRDPQGIRAWVAWRNRCQNRDVRQYVQGCGV
With B1 the Tm was 64.9 °C, the “heat capacity change of unfolding” value was 1.58 kcal/mol/K and the “unfolding enthalpy (calorimetric)” value was 114 kcal/mol. The “unfolding enthalpy (van 't Hoff)” value was 120 kcal/mol.
